This is an account of results in patent US20260234700, “MUTANT CAS12J ENDONUCLEASES” (University of Copenhagen, published 2026).

Holding throughout (assay): cleavage_in_vitro; PAM TTC; 5 mM Mg2+
Common to all, as to conditions: tags: C-terminal His6; label: 5'-FAM on NT-strand, 3'-FAM on T-strand

The target of data set [1] is T1, CasΦ3 Q123A (Biggiephage, Q123A).
T1 chain: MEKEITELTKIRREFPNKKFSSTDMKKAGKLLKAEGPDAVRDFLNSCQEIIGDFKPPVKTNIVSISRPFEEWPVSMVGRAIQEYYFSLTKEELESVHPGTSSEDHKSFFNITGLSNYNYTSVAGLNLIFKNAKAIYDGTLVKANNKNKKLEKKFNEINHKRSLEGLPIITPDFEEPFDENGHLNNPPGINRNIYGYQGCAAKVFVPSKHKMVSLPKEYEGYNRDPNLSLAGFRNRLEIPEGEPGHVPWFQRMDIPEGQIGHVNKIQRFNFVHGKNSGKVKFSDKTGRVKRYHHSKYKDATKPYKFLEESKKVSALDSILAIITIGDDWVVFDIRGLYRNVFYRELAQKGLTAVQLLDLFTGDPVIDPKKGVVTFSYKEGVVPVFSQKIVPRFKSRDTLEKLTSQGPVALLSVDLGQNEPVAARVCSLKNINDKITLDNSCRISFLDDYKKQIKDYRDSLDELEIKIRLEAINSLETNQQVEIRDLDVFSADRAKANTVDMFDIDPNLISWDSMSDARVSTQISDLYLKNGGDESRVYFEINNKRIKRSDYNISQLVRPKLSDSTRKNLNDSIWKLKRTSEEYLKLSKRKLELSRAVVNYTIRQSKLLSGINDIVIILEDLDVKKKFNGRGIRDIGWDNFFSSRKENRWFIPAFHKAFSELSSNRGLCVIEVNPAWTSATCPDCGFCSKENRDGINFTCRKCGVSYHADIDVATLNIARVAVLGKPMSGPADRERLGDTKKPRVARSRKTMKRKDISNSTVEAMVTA

The target in data set [2] is T2, CasΦ3 K30A (Biggiephage, K30A).
T2 chain: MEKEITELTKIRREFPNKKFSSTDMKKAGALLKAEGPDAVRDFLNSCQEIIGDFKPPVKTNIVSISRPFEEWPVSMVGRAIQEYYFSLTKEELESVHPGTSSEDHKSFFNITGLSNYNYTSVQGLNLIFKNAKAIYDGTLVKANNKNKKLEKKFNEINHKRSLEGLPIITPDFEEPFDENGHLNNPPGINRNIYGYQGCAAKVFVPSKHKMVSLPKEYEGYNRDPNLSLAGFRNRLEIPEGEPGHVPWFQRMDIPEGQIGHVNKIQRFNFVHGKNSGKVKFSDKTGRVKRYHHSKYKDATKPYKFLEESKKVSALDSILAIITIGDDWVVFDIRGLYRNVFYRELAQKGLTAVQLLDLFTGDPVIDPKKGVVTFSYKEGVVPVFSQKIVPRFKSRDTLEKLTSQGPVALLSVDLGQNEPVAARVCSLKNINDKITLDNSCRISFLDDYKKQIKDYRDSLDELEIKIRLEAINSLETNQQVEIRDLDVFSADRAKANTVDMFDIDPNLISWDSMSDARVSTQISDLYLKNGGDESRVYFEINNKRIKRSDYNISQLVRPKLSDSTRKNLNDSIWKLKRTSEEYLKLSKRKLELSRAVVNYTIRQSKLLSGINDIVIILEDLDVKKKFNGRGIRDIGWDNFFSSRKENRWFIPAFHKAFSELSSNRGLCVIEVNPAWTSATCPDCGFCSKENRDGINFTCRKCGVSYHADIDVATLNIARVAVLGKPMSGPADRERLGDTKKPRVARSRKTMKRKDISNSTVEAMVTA

Data set [3] deals with T3, CasΦ3 Q197A (Biggiephage, Q197A).
T3 chain: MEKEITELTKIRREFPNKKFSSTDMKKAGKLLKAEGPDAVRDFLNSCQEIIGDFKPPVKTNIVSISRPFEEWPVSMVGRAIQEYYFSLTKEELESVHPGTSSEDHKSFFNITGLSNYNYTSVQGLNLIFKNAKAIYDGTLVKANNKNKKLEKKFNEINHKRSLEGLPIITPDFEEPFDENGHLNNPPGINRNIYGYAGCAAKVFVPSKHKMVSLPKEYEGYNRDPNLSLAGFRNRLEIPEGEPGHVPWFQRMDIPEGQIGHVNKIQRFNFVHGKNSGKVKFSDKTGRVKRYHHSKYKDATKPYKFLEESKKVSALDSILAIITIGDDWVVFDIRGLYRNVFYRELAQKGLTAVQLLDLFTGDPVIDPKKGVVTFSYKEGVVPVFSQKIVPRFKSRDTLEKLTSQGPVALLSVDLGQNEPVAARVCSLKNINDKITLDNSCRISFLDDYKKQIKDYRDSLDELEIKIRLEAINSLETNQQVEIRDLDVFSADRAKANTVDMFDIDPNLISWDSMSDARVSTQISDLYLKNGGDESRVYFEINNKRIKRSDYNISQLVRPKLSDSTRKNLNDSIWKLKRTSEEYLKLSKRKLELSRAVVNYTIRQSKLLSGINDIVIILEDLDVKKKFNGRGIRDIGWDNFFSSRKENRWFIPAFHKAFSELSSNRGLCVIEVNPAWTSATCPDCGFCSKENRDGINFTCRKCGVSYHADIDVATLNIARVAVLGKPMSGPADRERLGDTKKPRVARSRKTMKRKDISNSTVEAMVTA

B1: CasΦ3 crRNA ; FAM-labelled target dsDNA (5F-NT-TTC-30/3F-T-AAG-30) (ssRNA ; dsDNA)
RNA: UAUUGAUUGCCCAGUACGCUGGGACAGCUGGUAAUGGGAUACCUU
DNA 1: GTAATTCAGCTGGTAATGGGATACCTTGTGCTACAGC
DNA 2: GCTGTAGCACAAGGTATCCCATTACCAGCTGAATTAC
Consider B1, for which the activity in data set [1] is ~90 % reduction vs WT; in data set [2], ~55 % reduction vs WT; in data set [3], ~90 % reduction vs WT.
